From publication PMC5363870, “A functional variant in NEPH3 gene confers high risk of renal failure in primary hematuric glomerulopathies. Evidence for predisposition to microalbuminuria in the general population” (PLoS ONE, 2017) come the findings set out here.

Numbering of substitutions follows the chain as printed. Names may count otherwise.

The chains are these.
B1: Nephrin (Nphs1) (natural protein, human, UniProt O60500 23-1241, looked up)
chain: QLAIPASVPRGFWALPENLTVVEGASVELRCGVSTPGSAVQWAKDGLLLGPDPRIPGFPRYRLEGDPARGEFHLHIEACDLSDDAEYECQVGRSEMGPELVSPRVILSILVPPKLLLLTPEAGTMVTWVAGQEYVVNCVSGDAKPAPDITILLSGQTISDISANVNEGSQQKLFTVEATARVTPRSSDNRQLLVCEASSPALEAPIKASFTVNVLFPPGPPVIEWPGLDEGHVRAGQSLELPCVARGGNPLATLQWLKNGQPVSTAWGTEHTQAVARSVLVMTVRPEDHGAQLSCEAHNSVSAGTQEHGITLQVTFPPSAIIILGSASQTENKNVTLSCVSKSSRPRVLLRWWLGWRQLLPMEETVMDGLHGGHISMSNLTFLARREDNGLTLTCEAFSEAFTKETFKKSLILNVKYPAQKLWIEGPPEGQKLRAGTRVRLVCLAIGGNPEPSLMWYKDSRTVTESRLPQESRRVHLGSVEKSGSTFSRELVLVTGPSDNQAKFTCKAGQLSASTQLAVQFPPTNVTILANASALRPGDALNLTCVSVSSNPPVNLSWDKEGERLEGVAAPPRRAPFKGSAAARSVLLQVSSRDHGQRVTCRAHSAELRETVSSFYRLNVLYRPEFLGEQVLVVTAVEQGEALLPVSVSANPAPEAFNWTFRGYRLSPAGGPRHRILSSGALHLWNVTRADDGLYQLHCQNSEGTAEARLRLDVHYAPTIRALQDPTEVNVGGSVDIVCTVDANPILPGMFNWERLGEDEEDQSLDDMEKISRGPTGRLRIHHAKLAQAGAYQCIVDNGVAPPARRLLRLVVRFAPQVEHPTPLTKVAAAGDSTSSATLHCRARGVPNIVFTWTKNGVPLDLQDPRYTEHTYHQGGVHSSLLTIANVSAAQDYALFTCTATNALGSDQTNIQLVSISRPDPPSGLKVVSLTPHSVGLEWKPGFDGGLPQRFCIRYEALGTPGFHYVDVVPPQATTFTLTGLQPSTRYRVWLLASNALGDSGLADKGTQLPITTPGLHQPSGEPEDQLPTEPPSGPSGLPLLPVLFALGGLLLLSNASCVGGVLWQRRLRRLAEGISEKTEAGSEEDRVRNEYEESQWTGERDTQSSTVSTTEAEPYYRSLRDFSPQLPPTQEEVSYSRGFTGEDEDMAFPGHLYDEVERTYPPSGAWGPLYDEVQMGPWDLHWPEDTYQDPRGIYDQVAGDLDTLEPDSLPFELRGHLV
notes: Nephrin, human NPHS1 cDNA cloned into a modified pcDNA6 vector behind the CD5 signal peptide and the V5 tag (sV5-tag); A CD5 signal peptide precedes the V5 tag in the construct; also called sV5-Nphs1; sV5-Nephrin; source: HEK 293T, transfected (calcium phosphate), in lysate; not shown: V5, N-terminal, kept
B2: Neph3 (filtrin) 353M variant (natural protein, human, UniProt Q6UWL6 21-708, looked up)
chain: GPSPHFLQQPEDLVVLLGEEARLPCALGAYWGLVQWTKSGLALGGQRDLPGWSRYWISGNAANGQHDLHIRPVELEDEASYECQATQAGLRSRPAQLHVLVPPEAPQVLGGPSVSLVAGVPANLTCRSRGDARPTPELLWFRDGVLLDGATFHQTLLKEGTPGSVESTLTLTPFSHDDGATFVCRARSQALPTGRDTAITLSLQYPPEVTLSASPHTVQEGEKVIFLCQATAQPPVTGYRWAKGGSPVLGARGPRLEVVADASFLTEPVSCEVSNAVGSANRSTALDVLFGPILQAKPEPVSVDVGEDASFSCAWRGNPLPRVTWTRRGGAQMLGSGATLRLPSVGPEDAGDYVCRAEAGLSGLRGGAAEARLTVNAPPVVTALHSAPAFLRGPARLQCLVFASPAPDAVVWSWDEGFLEAGSQGRFLVETFPAPESRGGLGPGLISVLHISGTQESDFSRSFNCSARNRLGEGGAQASLGRRDLLPTVRIVAGVAAATTTLLMVITGVALCCWRHSKASASFSEQKNLMRIPGSSDGSSSRGPEEEETGSREDRGPIVHTDHSDLVLEEEGTLETKDPTNGYYKVRGVSVSLSLGEAPGGGLFLPPPSPLGPPGTPTFYDFNPHLGMVPPCRLYRARAGYLTTPHPRAFTSYIKPTSFGPPDLAPGTPPFPYAAFPTPSHPRLQTHV
notes: Neph3 (filtrin), human NEPH3 cDNA with the natural variant V353M (GTG to ATG by site-directed mutagenesis); Each copy carries ONE tag: FLAG on the bait copy, HA on the prey copy of the homodimerisation co-IP; Two FLAG constructs are described (Origene pCMV6 with FLAG-tag; modified pcDNA6 with CD5 signal peptide fused to the FLAG-tag); also called NEPH3-V353M; NEPH3-p.V353M; source: HEK 293T, …
B3: Neph3 (filtrin) 353V (natural protein, human, UniProt Q6UWL6 21-708, looked up)
chain: B2 chain with M333V
notes: Neph3 (filtrin), human NEPH3 cDNA, wild-type allele with valine at position 353; Each copy carries ONE tag: FLAG on the bait copy, HA on the prey copy of the homodimerisation co-IP; Two FLAG constructs are described (Origene pCMV6 with FLAG-tag; modified pcDNA6 coding for the CD5 signal peptide fused to the FLAG-tag); In the pcDNA6 constructs a CD5 signal peptide precedes the tag; also called …

Common to all, as to assay: co-IP; HEK 293T cells co-transfected, lysed in IP-buffer (1% Triton X-100, 20 mM Tris pH 7.5, 25 mM NaCl); FLAG-Neph3 precipitated with anti-FLAG, blot with anti-HA (HA-Neph3) or anti-V5 (sV5-nephrin); densitometry (ImageJ) normalised to input, wild type set at 1.0, n = 3
Data set [1] addresses B3. To be noted: partners not purified.
In data set [2] the target is B2. To be noted: partners not purified.
Data set [3] concerns the molecule itself.

For B1, in data set [1], the “mean normalized densitometry value (co-IP)” value is 1 relative to wild type (1.0). The “mean densitometry value (co-IP)” value in data set [2] is 1.18 relative to wild type (1.0).

On to B2, for which the “mean normalized densitometry value (co-IP)” value in data set [1] is 4.33 relative to wild type (1.0); in data set [3] it was 23.8 relative to wild type (1.0).

With B3, the “mean normalized densitometry value (co-IP)” value in data set [3] was 1 relative to wild type (1.0).
